Patent publication US11833164B2, “Methods of treating Fabry disease in patients having a mutation in the GLA gene” (Amicus Therapeutics, Inc., priority 2019, dated 2023)
Changes are numbered by the printed parent chain. Numbers in names are those of the source.

B1: D315G (protein)
chain: MQLRNPELHLGCALALRFLALVSWDIPGARALDNGLARTPTMGWLHWERFMCNLDCQEEPDSCISEKLFMEMAELMVSEGWKDAGYEYLCIDDCWMAPQRDSEGRLQADPQRFPHGIRQLANYVHSKGLKLGIYADVGNKTCAGFPGSFGYYDIDAQTFADWGVDLLKFDGCYCDSLENLADGYKHMSLALNRTGRSIVYSCEWPLYMWPFQKPNYTEIRQYCNHWRNFADIDDSWKSIKSILDWTSFNQERIVDVAGPGGWNDPDMLVIGNFGLSWNQQVTQMALWAIMAAPLFMSNDLRHISPQAKALLQDKGVIAINQDPLGKQGYQLRQGDNFEVWERPLSGLAWAVAMINRQEIGGPRSYTIAVASLGKGVACNPACFITQLLPVKRKLGFYEWTSRLRSHINPTGTVLLQLENTMQMSLKDLL
B2: Q321K (protein)
chain: B1 chain with G315D, Q321K
B3: I317M (protein)
chain: B1 chain with G315D, I317M
B4: A318P (protein)
chain: B1 chain with G315D, A318P
B5: V316L (protein)
chain: B1 chain with G315D, V316L
B6: N320S (protein)
chain: B1 chain with G315D, N320S
B7: D322V (protein)
chain: B1 chain with G315D, D322V
B8: D315V (protein)
chain: B1 chain with G315V
B9: D315Y (protein)
chain: B1 chain with G315Y
B10: I317V (protein)
chain: B1 chain with G315D, I317V

Each molecule was assayed on mutant form of α-Gal A expressed in HEK-293 cells (assay: HEK assay (GLP HEK / Migalastat Amenability Assay): α-Gal A activity in lysates of transiently transfected HEK-293 cells incubated with or without 10 μM migalastat). Conditions: 10 μM migalastat versus baseline.
Assay type: cell-based, human
Summary of the method: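 HEK-293 cells transiently transfected with mutant α-Gal A and incubated with or without 10 μM migalastat; lysate activity given as nmol free 4-MU released per mg protein per hour. Values are mean±SEM.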
With B1 the “Absolute increase (% WT)” value was 23.6 % WT and the Relative increase was 1.4.
B2 was tested, and the “Absolute increase (% WT)” value was 32.0 % WT and the Relative increase was 2.1.
With B3 the “Absolute increase (% WT)” value was 10.2 % WT and the Relative increase was 11.7.
With B4 the “Absolute increase (% WT)” value was 6.5 % WT and the Relative increase was 5.3.
B5 was tested, and the “Absolute increase (% WT)” value was 33.9 % WT and the Relative increase was 1.7.
With B6 the “Absolute increase (% WT)” value was 23.9 % WT and the Relative increase was 1.3.
For B7, the “Absolute increase (% WT)” value was 11.7 % WT and the Relative increase was 5.6.
B8 was tested, and the “Absolute increase (% WT)” value was 24.8 % WT and the Relative increase was 1.8.
With B9 the “Absolute increase (% WT)” value was 14.2 % WT and the Relative increase was 1.4.
B10 was tested, and the “Absolute increase (% WT)” value was 18.6 % WT and the Relative increase was 1.3.

Same assay, conditions: absence of migalastat; percentage of baseline wild-type α-Gal A activity; mean ± SEM
With B1 the “Baseline α-Gal A activity (% WT)” value was 49.7 ± 3.7 % WT.
In the case of B2, the “Baseline α-Gal A activity (% WT)” value is reported as 29.2 ± 2 % WT.
With B3 the “Baseline α-Gal A activity (% WT)” value was 1 ± 0.1 % WT.
With B4 the “Baseline α-Gal A activity (% WT)” value was 1.5 ± 0.2 % WT.
With B5 the “Baseline α-Gal A activity (% WT)” value was 47.4 ± 3.9 % WT.
In the case of B6, the “Baseline α-Gal A activity (% WT)” value is reported as 82.9 ± 4.5 % WT.
In the case of B7, the “Baseline α-Gal A activity (% WT)” value is reported as 2.6 ± 0.2 % WT.
B8 was tested, and the “Baseline α-Gal A activity (% WT)” value was 31.2 ± 3.6 % WT.
With B9 the “Baseline α-Gal A activity (% WT)” value was 34.5 ± 3.5 % WT.
For B10, the “Baseline α-Gal A activity (% WT)” value was 55 ± 6.1 % WT.

Same assay, conditions: lysates of HEK-293 cells transiently transfected with the mutant form, incubated 5 days in absence of migalastat; mean ± SEM
In the case of B1, the “Baseline α-Gal A activity” value is reported as 13326 ± 859 nmol/mg/h.
With B2 the “Baseline α-Gal A activity” value was 7590 ± 520 nmol/mg/h.
For B3, the “Baseline α-Gal A activity” value was 340 ± 29 nmol/mg/h.
For B4, the “Baseline α-Gal A activity” value was 526 ± 42 nmol/mg/h.
With B5 the “Baseline α-Gal A activity” value was 12854 ± 958 nmol/mg/h.
For B6, the “Baseline α-Gal A activity” value was 21562 ± 1285 nmol/mg/h.
In the case of B7, the “Baseline α-Gal A activity” value is reported as 714 ± 53 nmol/mg/h.
For B8, the “Baseline α-Gal A activity” value was 8191 ± 717 nmol/mg/h.
With B9 the “Baseline α-Gal A activity” value was 9198 ± 1179 nmol/mg/h.
With B10 the “Baseline α-Gal A activity” value was 14885 ± 1495 nmol/mg/h.

Same assay, conditions: lysates of HEK-293 cells transiently transfected with the mutant form, incubated 5 days with 10 μM migalastat; mean ± SEM
B1 was tested, and the “10 μM migalastat α-Gal A activity” value was 19115 ± 1697 nmol/mg/h.
B2 was tested, and the “10 μM migalastat α-Gal A activity” value was 16046 ± 870 nmol/mg/h.
With B3 the “10 μM migalastat α-Gal A activity” value was 3988 ± 177 nmol/mg/h.
In the case of B4, the “10 μM migalastat α-Gal A activity” value is reported as 2799 ± 174 nmol/mg/h.
In the case of B5, the “10 μM migalastat α-Gal A activity” value is reported as 21812 ± 1450 nmol/mg/h.
B6 was tested, and the “10 μM migalastat α-Gal A activity” value was 28097 ± 1522 nmol/mg/h.
For B7, the “10 μM migalastat α-Gal A activity” value was 3989 ± 217 nmol/mg/h.
With B8 the “10 μM migalastat α-Gal A activity” value was 14580 ± 1235 nmol/mg/h.
In the case of B9, the “10 μM migalastat α-Gal A activity” value is reported as 12674 ± 1008 nmol/mg/h.
B10 was tested, and the “10 μM migalastat α-Gal A activity” value was 19927 ± 1565 nmol/mg/h.

Same assay, conditions: with 10 μM migalastat, 5 days; percentage of baseline wild-type α-Gal A activity; mean ± SEM
For B1, the “10 μM migalastat α-Gal A activity (% WT)” value was 73.3 ± 8 % WT.
In the case of B2, the “10 μM migalastat α-Gal A activity (% WT)” value is reported as 61.2 ± 2.4 % WT.
In the case of B3, the “10 μM migalastat α-Gal A activity (% WT)” value is reported as 11.2 ± 0.8 % WT.
With B4 the “10 μM migalastat α-Gal A activity (% WT)” value was 8 ± 0.8 % WT.
For B5, the “10 μM migalastat α-Gal A activity (% WT)” value was 81.3 ± 6.3 % WT.
With B6 the “10 μM migalastat α-Gal A activity (% WT)” value was 106.7 ± 3.9 % WT.
For B7, the “10 μM migalastat α-Gal A activity (% WT)” value was 14.3 ± 0.6 % WT.
B8 was tested, and the “10 μM migalastat α-Gal A activity (% WT)” value was 56 ± 6 % WT.
In the case of B9, the “10 μM migalastat α-Gal A activity (% WT)” value is reported as 48.7 ± 2.4 % WT.
In the case of B10, the “10 μM migalastat α-Gal A activity (% WT)” value is reported as 73.6 ± 5.5 % WT.
